How the values were obtained:
[1] = system: GST-GluR23Y (GST-YKEGYNVYG) [GST: P08515]
[2] = biological target: GST fusion protein of the GluR2 carboxyl tail (GST-GluR2CT) (UniProt P19491)
[3] = system: T1, GST-GluR23A (GST-AKEGANVAG)
T1 sequence: AKEGANVAG

[4] = system: GST back bone (GST) [GST: P08515]
[5] = biological target: GST fusion protein of the GluR1 carboxyl tail (GST-GluR1CT) (UniProt P19490)
Chain of GST fusion protein of the GluR1 carboxyl tail (GST-GluR1CT) (P19490 827-907): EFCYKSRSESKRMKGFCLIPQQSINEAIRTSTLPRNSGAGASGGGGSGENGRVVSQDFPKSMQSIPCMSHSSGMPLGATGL

Chain of GST fusion protein of the GluR2 carboxyl tail (GST-GluR2CT) (P19491 834-883): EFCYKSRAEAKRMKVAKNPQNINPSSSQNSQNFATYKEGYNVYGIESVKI

## active recombinant pp60 c-Src
[1]
  in vitro kinase assay, anti-phosphotyrosine immunoblot: the recombinant Src kinase phosphorylated a GST fusion protein containing the nine amino-acid stretch including all three GluR2-unique tyrosine residues
[2]
  in vitro kinase assay, anti-phosphotyrosine immunoblot: GST-GluR2CT, but not GST-GluR1CT or GST alone, is specifically phosphorylated by Src kinase
[3]
  in vitro kinase assay, anti-phosphotyrosine immunoblot: Src-mediated phosphorylation was abolished when these tyrosine residues were mutated into alanines
[4]
  in vitro kinase assay, anti-phosphotyrosine immunoblot: GST-GluR2CT, but not GST-GluR1CT or GST alone, is specifically phosphorylated by Src kinase
[5]
  in vitro kinase assay, anti-phosphotyrosine immunoblot: GST-GluR2CT, but not GST-GluR1CT or GST alone, is specifically phosphorylated by Src kinase

Source: patent US20120077751
